Assay results: the supplement of paper PMC10065799, “High-throughput profiling of sequence recognition by tyrosine kinases and SH2 domains using bacterial peptide display” (eLife, 2023)

How the values were obtained:
Grb2 SH2 = Grb2 SH2 (UniProt P62993); experiment: SH2 binding enrichment of the phosphorylated peptide, bacterial display (enrichment ratio); higher = better substrate or ligand; peptides without Tyr show the background
SHP2-C SH2 = experiment: as above
c-Src SH2 = experiment: as above
FGFR3 = FGFR3 (UniProt P22607); experiment: phosphorylation enrichment, bacterial display (enrichment ratio); higher = better substrate or ligand; peptides without Tyr show the background
Jak2 = Jak2 (UniProt O60674); experiment: as above
Sequence of Jak2 (O60674 whole entry, looked up): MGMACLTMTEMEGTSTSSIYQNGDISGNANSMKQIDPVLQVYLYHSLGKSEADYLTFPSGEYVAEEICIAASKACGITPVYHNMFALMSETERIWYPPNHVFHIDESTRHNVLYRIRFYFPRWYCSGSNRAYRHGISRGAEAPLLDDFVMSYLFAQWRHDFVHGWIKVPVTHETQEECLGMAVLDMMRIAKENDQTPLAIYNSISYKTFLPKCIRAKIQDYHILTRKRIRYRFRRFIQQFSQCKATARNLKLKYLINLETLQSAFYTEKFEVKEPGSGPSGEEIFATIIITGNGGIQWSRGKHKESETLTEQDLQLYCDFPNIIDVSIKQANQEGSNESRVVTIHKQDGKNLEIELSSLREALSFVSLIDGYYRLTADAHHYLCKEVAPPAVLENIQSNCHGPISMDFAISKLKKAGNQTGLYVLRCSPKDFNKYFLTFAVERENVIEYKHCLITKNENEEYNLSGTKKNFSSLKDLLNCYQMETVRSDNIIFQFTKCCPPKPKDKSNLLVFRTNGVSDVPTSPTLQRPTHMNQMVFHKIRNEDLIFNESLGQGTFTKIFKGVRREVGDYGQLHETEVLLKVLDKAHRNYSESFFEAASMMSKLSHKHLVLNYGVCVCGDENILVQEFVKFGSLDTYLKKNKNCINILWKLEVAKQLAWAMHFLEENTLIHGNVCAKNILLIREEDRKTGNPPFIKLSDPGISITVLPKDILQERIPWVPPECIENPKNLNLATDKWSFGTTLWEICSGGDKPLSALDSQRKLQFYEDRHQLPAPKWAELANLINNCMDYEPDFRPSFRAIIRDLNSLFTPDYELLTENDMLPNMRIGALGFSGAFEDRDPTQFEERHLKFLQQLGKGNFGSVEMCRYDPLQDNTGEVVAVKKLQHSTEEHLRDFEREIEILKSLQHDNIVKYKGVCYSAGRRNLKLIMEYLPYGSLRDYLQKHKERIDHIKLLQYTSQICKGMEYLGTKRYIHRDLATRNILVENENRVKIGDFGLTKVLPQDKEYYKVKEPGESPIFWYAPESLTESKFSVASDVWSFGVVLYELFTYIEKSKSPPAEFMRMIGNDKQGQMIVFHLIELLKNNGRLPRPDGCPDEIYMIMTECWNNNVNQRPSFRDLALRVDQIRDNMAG

AncSZ = experiment: as above
MERTK = MERTK (UniProt Q12866); experiment: as above
FGFR1 = FGFR1 (UniProt P11362); experiment: as above
Sequence of FGFR1 (P11362 whole entry, looked up): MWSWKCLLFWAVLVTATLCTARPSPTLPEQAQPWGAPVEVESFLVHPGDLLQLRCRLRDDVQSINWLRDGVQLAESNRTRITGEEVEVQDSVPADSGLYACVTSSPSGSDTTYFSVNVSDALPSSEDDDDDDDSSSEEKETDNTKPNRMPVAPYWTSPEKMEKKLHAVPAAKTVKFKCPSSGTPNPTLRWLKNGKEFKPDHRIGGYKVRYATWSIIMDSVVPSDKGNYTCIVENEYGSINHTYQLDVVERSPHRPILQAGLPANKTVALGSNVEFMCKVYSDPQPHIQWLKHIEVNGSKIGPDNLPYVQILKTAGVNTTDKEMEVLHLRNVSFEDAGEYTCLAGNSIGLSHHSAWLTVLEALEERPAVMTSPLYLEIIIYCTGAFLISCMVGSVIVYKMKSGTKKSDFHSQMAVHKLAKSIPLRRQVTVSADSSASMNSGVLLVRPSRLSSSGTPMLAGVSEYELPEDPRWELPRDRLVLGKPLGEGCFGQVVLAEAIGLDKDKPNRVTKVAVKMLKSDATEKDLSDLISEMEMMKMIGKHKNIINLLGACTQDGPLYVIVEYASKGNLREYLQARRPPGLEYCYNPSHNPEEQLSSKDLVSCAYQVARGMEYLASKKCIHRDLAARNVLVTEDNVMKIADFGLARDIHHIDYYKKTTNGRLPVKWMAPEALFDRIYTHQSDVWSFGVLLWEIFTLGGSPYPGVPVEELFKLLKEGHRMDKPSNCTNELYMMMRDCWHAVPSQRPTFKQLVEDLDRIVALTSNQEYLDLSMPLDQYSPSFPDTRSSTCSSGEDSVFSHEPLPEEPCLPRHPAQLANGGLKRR

Fyn = Fyn (UniProt P06241); experiment: as above
Sequence of Fyn (P06241 whole entry, looked up): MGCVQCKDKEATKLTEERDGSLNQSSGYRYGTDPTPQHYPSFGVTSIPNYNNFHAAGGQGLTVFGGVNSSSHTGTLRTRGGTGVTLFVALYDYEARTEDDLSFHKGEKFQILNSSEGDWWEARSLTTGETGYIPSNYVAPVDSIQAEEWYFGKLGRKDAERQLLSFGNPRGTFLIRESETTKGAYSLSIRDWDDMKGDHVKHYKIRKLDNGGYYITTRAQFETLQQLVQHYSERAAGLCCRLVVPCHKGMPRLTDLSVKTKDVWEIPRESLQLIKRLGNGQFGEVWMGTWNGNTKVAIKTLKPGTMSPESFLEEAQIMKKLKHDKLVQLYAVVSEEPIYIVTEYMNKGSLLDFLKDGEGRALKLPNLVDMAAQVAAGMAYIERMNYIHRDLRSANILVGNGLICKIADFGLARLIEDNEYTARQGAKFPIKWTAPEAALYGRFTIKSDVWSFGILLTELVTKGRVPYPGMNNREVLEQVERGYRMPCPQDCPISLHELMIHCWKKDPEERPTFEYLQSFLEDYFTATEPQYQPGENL

Fer (mouse) = experiment: as above
EPHB1 = EPHB1 (UniProt P54762); experiment: as above
Sequence of EPHB1 (P54762 whole entry, looked up): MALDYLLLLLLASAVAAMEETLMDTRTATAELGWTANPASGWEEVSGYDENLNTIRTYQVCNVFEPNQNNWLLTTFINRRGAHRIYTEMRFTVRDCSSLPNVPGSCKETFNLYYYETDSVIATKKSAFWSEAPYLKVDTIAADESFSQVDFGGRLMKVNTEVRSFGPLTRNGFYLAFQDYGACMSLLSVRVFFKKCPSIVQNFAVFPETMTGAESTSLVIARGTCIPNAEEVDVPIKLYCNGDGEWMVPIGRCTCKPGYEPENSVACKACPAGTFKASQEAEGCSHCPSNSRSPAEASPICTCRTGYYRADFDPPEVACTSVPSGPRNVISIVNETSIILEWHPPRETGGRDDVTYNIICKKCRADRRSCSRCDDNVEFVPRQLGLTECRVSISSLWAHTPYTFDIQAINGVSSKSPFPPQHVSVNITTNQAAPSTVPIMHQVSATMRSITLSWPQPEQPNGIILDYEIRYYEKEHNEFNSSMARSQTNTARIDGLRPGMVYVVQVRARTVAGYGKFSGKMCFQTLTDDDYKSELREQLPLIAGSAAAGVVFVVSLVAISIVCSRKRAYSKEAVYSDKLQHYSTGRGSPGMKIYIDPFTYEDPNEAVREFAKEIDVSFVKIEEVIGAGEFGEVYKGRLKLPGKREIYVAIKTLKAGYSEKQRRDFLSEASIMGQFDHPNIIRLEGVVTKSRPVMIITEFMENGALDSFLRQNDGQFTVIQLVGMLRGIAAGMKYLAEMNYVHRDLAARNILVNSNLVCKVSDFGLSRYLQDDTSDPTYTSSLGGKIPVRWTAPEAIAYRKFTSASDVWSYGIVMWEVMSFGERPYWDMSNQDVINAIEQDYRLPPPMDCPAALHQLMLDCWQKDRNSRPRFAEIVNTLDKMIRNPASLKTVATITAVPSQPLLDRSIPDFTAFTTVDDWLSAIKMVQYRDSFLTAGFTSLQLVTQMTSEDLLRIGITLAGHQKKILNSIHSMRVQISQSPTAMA

c-Abl (mouse) = experiment: as above
EPHB2 = EPHB2 (UniProt P29323); experiment: as above
c-Src = experiment: as above
Fes = Fes (UniProt P07332); experiment: as above
Sequence of Fes (P07332 whole entry, looked up): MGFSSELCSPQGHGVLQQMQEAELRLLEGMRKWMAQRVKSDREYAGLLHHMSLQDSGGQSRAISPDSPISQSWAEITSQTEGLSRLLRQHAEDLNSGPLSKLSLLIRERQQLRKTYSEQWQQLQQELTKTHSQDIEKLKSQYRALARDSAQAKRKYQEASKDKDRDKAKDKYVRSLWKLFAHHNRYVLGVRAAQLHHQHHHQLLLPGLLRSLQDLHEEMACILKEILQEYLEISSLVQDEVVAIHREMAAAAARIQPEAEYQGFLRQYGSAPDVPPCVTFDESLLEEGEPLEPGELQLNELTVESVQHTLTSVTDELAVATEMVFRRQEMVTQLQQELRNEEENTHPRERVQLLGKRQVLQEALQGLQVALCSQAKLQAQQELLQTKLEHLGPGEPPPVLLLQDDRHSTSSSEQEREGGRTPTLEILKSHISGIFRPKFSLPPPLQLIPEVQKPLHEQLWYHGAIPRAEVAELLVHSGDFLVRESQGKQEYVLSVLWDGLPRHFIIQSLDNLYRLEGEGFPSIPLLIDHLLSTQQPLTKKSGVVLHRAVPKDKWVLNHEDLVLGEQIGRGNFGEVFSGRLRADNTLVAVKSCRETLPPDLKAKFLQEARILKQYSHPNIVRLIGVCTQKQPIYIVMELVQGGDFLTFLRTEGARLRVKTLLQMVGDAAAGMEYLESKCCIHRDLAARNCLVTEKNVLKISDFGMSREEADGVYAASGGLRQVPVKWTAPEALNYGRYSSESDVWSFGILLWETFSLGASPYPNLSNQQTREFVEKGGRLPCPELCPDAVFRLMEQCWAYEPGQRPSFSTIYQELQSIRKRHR

Hck = Hck (UniProt P08631); experiment: as above
Sequence of Hck (P08631 whole entry, looked up, the tested form may be a part): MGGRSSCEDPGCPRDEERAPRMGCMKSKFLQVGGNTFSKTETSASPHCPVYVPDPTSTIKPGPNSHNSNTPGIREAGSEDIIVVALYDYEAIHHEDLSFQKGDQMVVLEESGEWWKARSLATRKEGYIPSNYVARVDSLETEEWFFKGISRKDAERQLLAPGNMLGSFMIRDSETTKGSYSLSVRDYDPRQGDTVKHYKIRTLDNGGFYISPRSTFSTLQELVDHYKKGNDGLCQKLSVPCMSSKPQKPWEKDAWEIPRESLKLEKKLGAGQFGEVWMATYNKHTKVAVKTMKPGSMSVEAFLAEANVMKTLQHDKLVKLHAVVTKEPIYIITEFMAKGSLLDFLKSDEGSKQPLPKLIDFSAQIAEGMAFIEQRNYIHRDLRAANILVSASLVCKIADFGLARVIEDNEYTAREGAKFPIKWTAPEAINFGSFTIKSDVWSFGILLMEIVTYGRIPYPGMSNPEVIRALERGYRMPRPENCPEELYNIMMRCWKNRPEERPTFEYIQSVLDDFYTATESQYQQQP
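Throughout, for SH2 binding enrichment of the phosphorylated peptide, bacterial display: peptide library displayed on the E. coli surface as eCPX fusions, selected cells deep-sequenced, score is each peptide's frequency after selection divided by its frequency in the input.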
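Throughout, for phosphorylation enrichment, bacterial display: 11-residue human phosphosite peptides and single-mutation variants displayed on the E. coli surface, counted by deep sequencing, each peptide's frequency after selection divided by its frequency in the unselected input library; frequency after pTyr selection over input frequency; kinase dosed for 20-30% of maximal phosphorylation in three min.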

Sequence of Grb2 SH2 (P62993 whole entry, looked up): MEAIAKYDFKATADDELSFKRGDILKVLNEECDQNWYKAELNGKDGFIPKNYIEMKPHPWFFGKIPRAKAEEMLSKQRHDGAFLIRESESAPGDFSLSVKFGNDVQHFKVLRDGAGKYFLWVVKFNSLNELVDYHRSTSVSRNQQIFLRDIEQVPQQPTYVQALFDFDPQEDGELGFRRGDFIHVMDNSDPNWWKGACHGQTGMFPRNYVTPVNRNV

Sequence | SH2 binding enrichment (Grb2 SH2) | SH2 binding enrichment (SHP2-C SH2) | SH2 binding enrichment (c-Src SH2) | phosphorylation enrichment (FGFR3) | phosphorylation enrichment (Jak2) | phosphorylation enrichment (AncSZ) | phosphorylation enrichment (MERTK) | phosphorylation enrichment (FGFR1) | phosphorylation enrichment (Fyn) | phosphorylation enrichment (Fer (mouse)) | phosphorylation enrichment (EPHB1) | phosphorylation enrichment (c-Abl (mouse)) | phosphorylation enrichment (EPHB2) | phosphorylation enrichment (c-Src) | phosphorylation enrichment (Fes) | phosphorylation enrichment (Hck)
FLLRVYSIFSK [SGCE_Y38_T36R] | 2.26 | 1.84 | 1.51 | 1.28 | 0.804 | 0.886 | 0.634 | 0.574 | 0.437 | 0.433 | 0.321 | 0.987 | 0.402 | 1.49 | 1.02 | 0.504
FLNSIYKCRDE [ROS1_Y2227_S2229C] | 0.895 | 0.667 | 0.518 | 0.662 | 1.24 | 0.953 | 0.311 | 0.579 | 0.488 | 0.477 | 0.463 | 0.78 | 0.514 | 0.774 | 0.909 | 0.572
FRPPFYHRNCM [HGD_Y334_YF] | 0.935 | 0.913 | 1 | 0.605 | 0.761 | 0.921 | 0.426 | 0.426 | 0.472 | 0.489 | 0.417 | 0.649 | 0.489 | 0.402 | 1.04 | 0.48
FRVAGYKTQGG [TIA1_Y383_E384K_YF] | 0.825 | 0.678 | 0.489 | 0.468 | 0.558 | 0.533 | 0.436 | 0.417 | 0.668 | 0.273 | 0.379 | 0.686 | 0.468 | 0.342 | 0.624 | 0.401
FSLPAFMDRRD [COX4I1_Y38_Y38F] | 1.02 | 1.03 | 0.639 | 0.537 | 0.807 | 0.947 | 0.4 | 0.473 | 0.458 | 0.455 | 0.396 | 0.497 | 0.456 | 0.459 | 0.81 | 0.41
FSTPPYLLEAA [BRIP1_Y921_S919P_YF] | 0.952 | 0.655 | 0.607 | 0.707 | 0.909 | 0.95 | 0.497 | 0.63 | 0.619 | 0.579 | 0.521 | 0.76 | 0.601 | 0.669 | 1 | 0.434
FTFDPYSEEDP [IL2RB_Y387_YF] | 1.09 | 0.823 | 0.651 | 0.698 | 1.17 | 1.08 | 0.426 | 0.61 | 0.839 | 0.686 | 0.694 | 0.772 | 0.642 | 1.18 | 1.23 | 0.562
FYLGAYDRFLP [SLC22A5_Y486_V481F] | 1.18 | 1.37 | 1.16 | 0.831 | 1.11 | 1.37 | 4.1 | 0.712 | 2.4 | 1.22 | 0.938 | 0.829 | 2.06 | 3.62 | 1.28 | 3.38
GADDSYFTARS [ZAP70_Y492_YF] | 0.723 | 0.566 | 0.402 | 0.51 | 0.577 | 0.657 | 0.406 | 0.557 | 0.457 | 0.417 | 0.299 | 0.401 | 0.44 | 0.417 | 0.79 | 0.444
GANSEYIIAEK [ECHS1_Y35_F33S] | 1 | 0.487 | 0.435 | 0.61 | 1.1 | 1.26 | 0.581 | 0.483 | 0.64 | 0.468 | 0.711 | 0.764 | 0.618 | 0.646 | 1.01 | 0.587
GARGRYIMGGP [TNK1_Y277_V278I] | 0.811 | 0.674 | 0.606 | 0.4 | 0.531 | 0.433 | 0.468 | 0.789 | 0.433 | 0.4 | 0.39 | 0.512 | 0.462 | 0.522 | 0.547 | 0.428
GASRRYGSGVS [NEU1_Y242_W240R] | 0.852 | 0.565 | 0.383 | 0.439 | 0.436 | 0.582 | 0.509 | 0.393 | 0.384 | 0.43 | 0.429 | 0.437 | 0.48 | 0.41 | 0.539 | 0.437
GDPTEYFITAI [IGSF22_Y501_S503I_YF] | 0.786 | 0.467 | 0.499 | 1.11 | 1.31 | 1.55 | 0.482 | 1.07 | 0.445 | 0.404 | 0.584 | 0.911 | 0.644 | 0.555 | 1.08 | 0.461
GEDPIYVTLEG [RTKtide_2018] | 0.906 | 0.485 | 0.718 | 3.4 | 1.2 | 1.81 | 2.29 | 4.71 | 5.05 | 3.86 | 5.64 | 1.7 | 6.76 | 3.9 | 1.47 | 3.44
GEYYRYLAEVA [YWHAG_Y133_D129E] | 0.827 | 0.848 | 0.669 | 7.42 | 4.37 | 2.12 | 1.73 | 9.65 | 1.52 | 0.374 | 1.13 | 1.88 | 2.05 | 2.34 | 0.858 | 1.4
GFEEAYSVFKK [PAFAH1B1_Y28_YF] | 1.03 | 1.76 | 0.605 | 0.412 | 0.514 | 0.803 | 0.544 | 0.423 | 1.29 | 0.365 | 0.339 | 0.756 | 0.379 | 3.97 | 0.696 | 2.51
GFEEAYSVSKK [PAFAH1B1_Y28_F31S_YF] | 1.01 | 0.688 | 0.505 | 0.492 | 0.853 | 0.697 | 0.377 | 0.374 | 0.403 | 0.39 | 0.355 | 0.464 | 0.353 | 0.65 | 0.764 | 0.487
